Test results as given in the supplement of paper PMC9732359.
± gives the uncertainty stated by the source.

Assay: protein stability index of a GFP-peptide fusion (yeast GPS) (PSI 1-4); higher = more stable; sorted into four equal gates, so the index is relative within each strain
Settings: pdr5∆
Outline: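 Plasmids in a pooled yeast library fused tiled 17-residue yeast protein peptides downstream of GFP and also expressed Cherry. Mid-log cultures grown without leucine were sorted into four equal gates by GFP/Cherry fluorescence ratio. Each gate's plasmids were PCR-amplified and Illumina-sequenced, and reads were matched to strains by barcodes. The protein stability index is derived by multiplying each gate's read frequency by its gate number and summing the results.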

Sequence | protein stability index
TSSAPAQNQGMFGAKPA [YGL172W/NUP49] | 2.75 ± 0.089
TSTKDKNSSTSNTEPIP [MED1] | 3.27 ± 0.061
TSTPPPPPAPHNLHPQI [SNF5] | 3.16 ± 0.048
TTAVDALQKGLKDLMDL [RPC19] | 2.79 ± 0.26
TTIEEIFLHSLPVKEFQ [RPS2] | 2.78 ± 0.069

Same assay, conditions: san1∆

Sequence | protein stability index
TKKISNFNSSLHKRQQF [YJL039C/NUP192] | 1.4 ± 0.18
TKLKNAVQNESVSSPIE [QCR2] | 3.25 ± 0.094
TKLRAFVYNKVNETEAI [YGR119C/NUP57] | 2.68 ± 0.061
TKPSDLTIKDIVLGVKD [RPO21] | 1.95 ± 0.15
TKPSLRKASCIWLLSYI [ECM29] | 1.86 ± 0.077
TKRLGTPESVKPANASH [RGR1] | 2.26 ± 0.11
TKRWYKNAGLGFKTPKT [RPS11A] | 3.05 ± 0.11
TKTEALLSDVVSTSSGA [YJL041W/NSP1] | 2.75 ± 0.15
TKYFEPTSTENNKKVVG [ECM29] | 2.82 ± 0.13
TLEQKVNLENPIPIAVL [FAS1] | 1.57 ± 0.095
TLGNALRYVIMKNPDVE [RPC19] | 2.46 ± 0.077
TLLIAIRGSNRDLKPSN [YML103C/NUP188] | 2.52 ± 0.098
TLLVIRRLHKVLRPFLL [SNF2] | 1.34 ± 0.16
TLSFNFSQKANKTKAVD [YOR098C/NUP1] | 1.84 ± 0.1
TLSKTTDSSALTYDRLE [PRE9] | 2.89 ± 0.1
TLSVSHGINLQNKKNLK [SSN2] | 2.65 ± 0.077
TLTDILEDELYHTNPGH [RPN4] | 3.1 ± 0.064
TLYSVKSKEDMKQLKFF [SNU114] | 3.17 ± 0.083
TNAKIPQFDSTQPKSSS [SSN3] | 3.09 ± 0.039
TNGGLFGSGTQNNNTLG [YGR119C/NUP57] | 3.02 ± 0.069
TNKDIICQIISSTITGD [RPL5] | 2.94 ± 0.1
TNKSKRPSITEAMMLKE [MED1] | 2.89 ± 0.094
TNLKMKRKWSYVLYAKI [RRP43] | 1.75 ± 0.16
TNLQRNVDRLYKLNVRS [NUT2] | 3.01 ± 0.18

Sequence | protein stability index
TNQDGLKFVKVRVRTTK [RPB2] | 3.3 ± 0.1
TNQKDTNDHVDKRTKID [ISW2] | 2.81 ± 0.059
TNTFGSNSAGTSLFGSS [YJL041W/NSP1] | 3.16 ± 0.082
TNVNVKIKDVQQQIESN [SMC3] | 3.18 ± 0.074
TNVYSKDLVIVSNLMGR [RPB3] | 2.96 ± 0.051
TPANNGENAAEKPDNSN [SNF2] | 1.81 ± 0.1
TPAPKISYKKGAASNRT [RPL36A] | 3.17 ± 0.058
TPDATKIKAILESVGIE [RPP2A] | 3.08 ± 0.12
TPKGNESEQELSLHTGF [MTR3] | 3.18 ± 0.12
TPKLQTQLSYLISSSLS [YCS4] | 2 ± 0.08
TPLLENISISTSELGND [BRR2] | 2.2 ± 0.07
TPNFDDVLKENNDADKG [RIP1] | 1.29 ± 0.15
TPNLWAEQPLPVSPLDI [RPS2] | 2.31 ± 0.056
TPNVREEKQKSYKFPRG [PUP1] | 3.13 ± 0.095
TPSTNEPYARVSGDLNP [FAS1] | 2.46 ± 0.15
TQDDFTTSVDVMLKGIV [SRP54] | 1.67 ± 0.12
TQIANAGASPMVNTQQP [PRE4] | 2.82 ± 0.075
TQPKAEATQDDDFDMLF [NUT1] | 2.99 ± 0.053
TQPKSSSSMDMQANTNA [SSN3] | 3.13 ± 0.041
TQTESKKEENETISNVA [SNF2] | 2.98 ± 0.045
TQVFNILLQHKEKLTVQ [POP1] | 3.13 ± 0.058
TQVNILKENNAILQKSL [YIL149C/MLP2] | 2.63 ± 0.076
TQVYKLGLAKSVHHARV [RPS9A] | 1.55 ± 0.14
TRAGGLGINLVTADTVI [ISW2] | 2.12 ± 0.1

Sequence | protein stability index
TRIKLLLTKNVSCYRPR [RPS6A] | 2.88 ± 0.11
TRLYDYEIRDIDQDIHG [SSN2] | 3.48 ± 0.094
TRPLTLSHGSLEHVLLV [FAS1] | 2.67 ± 0.068
TRPQMPSRTRETATSER [GRR1] | 3.03 ± 0.05
TRRFVNVTLVNGKRRMN [RPS30A] | 1.73 ± 0.084
TRSALKLVRESELLGGT [QCR2] | 2.21 ± 0.16
TRSWRPPQAGDRSLADD [RPB8] | 3.32 ± 0.13
TRVRLPSGAKKVISSDA [RPL2A] | 3.26 ± 0.049
TRVTRLSLQRANVEILA [CSL4] | 1.78 ± 0.081
TSAIEVLVGSCAYTGTG [RPN1] | 3.29 ± 0.06
TSDLLGSHLSETEFPPF [ECM29] | 3.17 ± 0.042
TSHYQNYHPNASITPYK [RPN4] | 2.94 ± 0.055
TSIARIGDYILKSPVLS [QCR7] | 1.49 ± 0.075
TSKMNLSEDVNLETLVT [RPT2] | 2.62 ± 0.15
TSKPVFSFGAATPSAKE [YLR335W/NUP2] | 3.08 ± 0.043
TSKWLNSITSGGLKSCD [YDL116W/NUP84] | 3.42 ± 0.078
TSLQGTYEAIEITDAYC [YMR129W/POM152] | 2.74 ± 0.049
TSLVANENDKIYLLFQS [YDL116W/NUP84] | 2.42 ± 0.054
TSMNGVHNTVAAGNASS [SNF5] | 2.76 ± 0.05
TSSAPAQNQGMFGAKPA [YGL172W/NUP49] | 1.92 ± 0.14
TSTKDKNSSTSNTEPIP [MED1] | 3.21 ± 0.046
TSTPPPPPAPHNLHPQI [SNF5] | 3.08 ± 0.049
TTAVDALQKGLKDLMDL [RPC19] | 2.9 ± 0.12
TTIEEIFLHSLPVKEFQ [RPS2] | 3.01 ± 0.067

Same assay, conditions: ubr1∆

Sequence | protein stability index
TKKISNFNSSLHKRQQF [YJL039C/NUP192] | 1.6 ± 0.11
TKLKNAVQNESVSSPIE [QCR2] | 3.05 ± 0.067
TKLRAFVYNKVNETEAI [YGR119C/NUP57] | 2.59 ± 0.059
TKPSDLTIKDIVLGVKD [RPO21] | 2.83 ± 0.044
TKPSLRKASCIWLLSYI [ECM29] | 1.86 ± 0.038
TKQASSFSFLNRADGTG [YLR335W/NUP2] | 1.45 ± 0.2
TKRLGTPESVKPANASH [RGR1] | 2.76 ± 0.095
TKRWYKNAGLGFKTPKT [RPS11A] | 3.5 ± 0.082
TKYFEPTSTENNKKVVG [ECM29] | 2.97 ± 0.062
TLEQKVNLENPIPIAVL [FAS1] | 1.39 ± 0.028
TLGNALRYVIMKNPDVE [RPC19] | 2.8 ± 0.055
TLLIAIRGSNRDLKPSN [YML103C/NUP188] | 2.8 ± 0.087
TLLVIRRLHKVLRPFLL [SNF2] | 1.09 ± 0.08
TLSFNFSQKANKTKAVD [YOR098C/NUP1] | 1.71 ± 0.057
TLSKTTDSSALTYDRLE [PRE9] | 2.94 ± 0.058
TLSVSHGINLQNKKNLK [SSN2] | 2.78 ± 0.063
TLTDILEDELYHTNPGH [RPN4] | 3.21 ± 0.043
TLYSVKSKEDMKQLKFF [SNU114] | 3.1 ± 0.087
TNAKIPQFDSTQPKSSS [SSN3] | 2.98 ± 0.032
TNELWARLAILKERAKN [YGR119C/NUP57] | 3.58 ± 0.13
TNGGLFGSGTQNNNTLG [YGR119C/NUP57] | 3.08 ± 0.069
TNKDIICQIISSTITGD [RPL5] | 2.24 ± 0.055
TNKSKRPSITEAMMLKE [MED1] | 3.03 ± 0.084
TNLKMKRKWSYVLYAKI [RRP43] | 2.09 ± 0.15

Sequence | protein stability index
TNLQRNVDRLYKLNVRS [NUT2] | 3.49 ± 0.073
TNQDGLKFVKVRVRTTK [RPB2] | 3.2 ± 0.088
TNQKDTNDHVDKRTKID [ISW2] | 2.72 ± 0.044
TNTFGSNSAGTSLFGSS [YJL041W/NSP1] | 3.15 ± 0.058
TNVNVKIKDVQQQIESN [SMC3] | 2.79 ± 0.1
TNVYSKDLVIVSNLMGR [RPB3] | 2.79 ± 0.04
TPANNGENAAEKPDNSN [SNF2] | 2.71 ± 0.068
TPAPKISYKKGAASNRT [RPL36A] | 3.1 ± 0.042
TPDATKIKAILESVGIE [RPP2A] | 3.18 ± 0.063
TPGELVTDDPIWMRGHG [RRP4] | 3.14 ± 0.15
TPKGNESEQELSLHTGF [MTR3] | 3.17 ± 0.061
TPKLQTQLSYLISSSLS [YCS4] | 2.09 ± 0.046
TPLLENISISTSELGND [BRR2] | 2.03 ± 0.042
TPNFDDVLKENNDADKG [RIP1] | 1.76 ± 0.092
TPNLWAEQPLPVSPLDI [RPS2] | 1.58 ± 0.066
TPSTNEPYARVSGDLNP [FAS1] | 2.39 ± 0.073
TQDDFTTSVDVMLKGIV [SRP54] | 1.51 ± 0.047
TQIANAGASPMVNTQQP [PRE4] | 2.82 ± 0.18
TQPKAEATQDDDFDMLF [NUT1] | 3.14 ± 0.043
TQPKSSSSMDMQANTNA [SSN3] | 2.45 ± 0.039
TQTESKKEENETISNVA [SNF2] | 3.19 ± 0.038
TQVFNILLQHKEKLTVQ [POP1] | 2.94 ± 0.036
TQVNILKENNAILQKSL [YIL149C/MLP2] | 2.65 ± 0.059
TQVYKLGLAKSVHHARV [RPS9A] | 1.24 ± 0.066

Sequence | protein stability index
TRAGGLGINLVTADTVI [ISW2] | 2.89 ± 0.096
TRIKLLLTKNVSCYRPR [RPS6A] | 2.94 ± 0.17
TRLYDYEIRDIDQDIHG [SSN2] | 3.49 ± 0.11
TRPLTLSHGSLEHVLLV [FAS1] | 3.12 ± 0.065
TRPQMPSRTRETATSER [GRR1] | 3.05 ± 0.036
TRRFVNVTLVNGKRRMN [RPS30A] | 2.37 ± 0.038
TRSWRPPQAGDRSLADD [RPB8] | 3.21 ± 0.11
TRVRLPSGAKKVISSDA [RPL2A] | 3.26 ± 0.072
TRVTRLSLQRANVEILA [CSL4] | 2.03 ± 0.033
TSAIEVLVGSCAYTGTG [RPN1] | 3.28 ± 0.093
TSDLLGSHLSETEFPPF [ECM29] | 2.9 ± 0.058
TSHYQNYHPNASITPYK [RPN4] | 2.89 ± 0.063
TSIARIGDYILKSPVLS [QCR7] | 1.98 ± 0.033
TSKMNLSEDVNLETLVT [RPT2] | 2.78 ± 0.11
TSKPVFSFGAATPSAKE [YLR335W/NUP2] | 3.06 ± 0.041
TSKWLNSITSGGLKSCD [YDL116W/NUP84] | 2.7 ± 0.052
TSLQGTYEAIEITDAYC [YMR129W/POM152] | 2.52 ± 0.038
TSLVANENDKIYLLFQS [YDL116W/NUP84] | 2.79 ± 0.035
TSMNGVHNTVAAGNASS [SNF5] | 2.76 ± 0.051
TSSAPAQNQGMFGAKPA [YGL172W/NUP49] | 2.79 ± 0.069
TSTKDKNSSTSNTEPIP [MED1] | 3.16 ± 0.041
TSTPPPPPAPHNLHPQI [SNF5] | 3.14 ± 0.039
TTAVDALQKGLKDLMDL [RPC19] | 3.02 ± 0.13
TTIEEIFLHSLPVKEFQ [RPS2] | 2.79 ± 0.073
